As a reminder, the Km is the concentration of substrate that gives half-maximal velocity. What is called kcat is the number of substrate molecules converted per active site and unit of time at saturation. As a reminder, the kcat/Km is the second-order rate constant that governs catalysis at low substrate concentration.

Like-named read-outs stand apart in the source and are kept apart here.

From article PMC12243196, “Division of the large and multifunctional glycoside hydrolase family 2: high functional specificity and biochemical assays in the uncharacterized subfamilies” (Biotechnology for Biofuels and Bioproducts, 2025) come the findings set out here.

In one data set the test system is T1, BfGH2_9.
T1 construct: gene BF638R_1918
T1 sequence (E1WVB9 30-864 limits assumed): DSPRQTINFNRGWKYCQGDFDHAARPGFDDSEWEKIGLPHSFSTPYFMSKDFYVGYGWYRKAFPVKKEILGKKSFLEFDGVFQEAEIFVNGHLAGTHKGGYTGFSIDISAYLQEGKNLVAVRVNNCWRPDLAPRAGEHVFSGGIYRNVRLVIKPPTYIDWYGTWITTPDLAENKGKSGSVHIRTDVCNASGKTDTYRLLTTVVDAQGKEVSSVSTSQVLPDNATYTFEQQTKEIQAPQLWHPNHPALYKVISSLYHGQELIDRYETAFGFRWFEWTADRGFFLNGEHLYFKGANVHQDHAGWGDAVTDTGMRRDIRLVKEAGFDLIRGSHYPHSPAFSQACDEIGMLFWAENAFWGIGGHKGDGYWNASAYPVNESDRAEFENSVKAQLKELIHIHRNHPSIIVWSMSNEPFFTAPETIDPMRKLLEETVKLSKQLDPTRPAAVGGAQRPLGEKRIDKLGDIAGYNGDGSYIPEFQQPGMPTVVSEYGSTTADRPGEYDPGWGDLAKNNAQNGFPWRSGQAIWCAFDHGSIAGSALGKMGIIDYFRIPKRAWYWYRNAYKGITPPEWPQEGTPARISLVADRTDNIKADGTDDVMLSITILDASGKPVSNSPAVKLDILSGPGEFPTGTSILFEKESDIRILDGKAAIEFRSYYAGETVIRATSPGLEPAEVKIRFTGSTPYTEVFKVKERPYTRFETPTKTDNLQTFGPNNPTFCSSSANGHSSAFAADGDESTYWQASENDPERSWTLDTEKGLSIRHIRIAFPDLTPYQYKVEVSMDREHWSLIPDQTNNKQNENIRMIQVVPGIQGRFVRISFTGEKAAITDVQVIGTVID

The target in another data set is T2, AmGH2_9 (Akkermansia muciniphila, UniProt B2UM41).
T2 construct: gene Amuc_1667
T2 sequence (B2UM41 entry or part of it): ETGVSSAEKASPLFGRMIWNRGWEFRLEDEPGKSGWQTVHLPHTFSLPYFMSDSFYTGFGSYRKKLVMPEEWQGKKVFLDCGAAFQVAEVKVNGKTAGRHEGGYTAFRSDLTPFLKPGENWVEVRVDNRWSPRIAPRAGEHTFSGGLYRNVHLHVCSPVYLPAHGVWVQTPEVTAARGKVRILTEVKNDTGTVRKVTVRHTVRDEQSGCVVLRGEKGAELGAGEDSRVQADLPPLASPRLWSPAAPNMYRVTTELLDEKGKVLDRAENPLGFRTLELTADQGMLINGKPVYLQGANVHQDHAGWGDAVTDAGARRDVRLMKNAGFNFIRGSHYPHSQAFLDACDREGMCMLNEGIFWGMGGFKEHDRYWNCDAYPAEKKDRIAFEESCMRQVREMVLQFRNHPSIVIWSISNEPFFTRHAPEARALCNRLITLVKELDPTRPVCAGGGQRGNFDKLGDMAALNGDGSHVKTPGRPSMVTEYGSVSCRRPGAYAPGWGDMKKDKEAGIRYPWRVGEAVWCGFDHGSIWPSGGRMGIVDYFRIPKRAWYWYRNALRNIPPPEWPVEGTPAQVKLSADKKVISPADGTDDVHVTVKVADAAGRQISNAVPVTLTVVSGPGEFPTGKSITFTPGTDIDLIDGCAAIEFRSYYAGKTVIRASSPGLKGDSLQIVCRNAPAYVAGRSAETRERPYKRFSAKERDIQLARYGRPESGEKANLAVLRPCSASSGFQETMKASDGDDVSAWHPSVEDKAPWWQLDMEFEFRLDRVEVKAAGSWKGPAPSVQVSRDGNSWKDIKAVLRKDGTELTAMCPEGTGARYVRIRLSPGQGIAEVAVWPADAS
The experiment in a line: activity screening, absorbance at […] nm. Format: biochemical.

Substrate in the data set “purified protein”: O=[N+]([O-])c1ccc(O[C@@H]2O[C@H](CO)[C@H](O)[C@H](O)[C@H]2O)cc1
The experiment in a line: purified protein.

In the case of `O=[N+]([O-])c1ccccc1O[C@@H]1O[C@H](CO)[C@H](O)[C@H](O)[C@H]1O` [oNP-β-D-Galp], the “activity screening, absorbance at 405 nm” value in the data set on BfGH2_9 and on AmGH2_9 was “All the enzymes also displayed activity on oNP-β-D-Galp (data not shown)” throughout.

B1: (Ruminiclostridium cellobioparum subsp. termitidis CT1112) (protein)
chain: MNNRKQICLNGLWDFCPGNGTLDRIPRKWDKTQIKVPSPWNINTFAGPEKLTCGEEEIFLRGGEFNLYPEYPKAWENAQSGWYKTEMFIDEEWRGKVITLKFNAVLFYSEFYINGKLISTDADGFLPHEFPVQDHVKYGGSNTLVVGVKKLDAFRYKNEAGKNRIEYPTGSFWGKTMGGIWQDVYLNVYPHDHITDIFVRTDVNSNILRVDADLAADRGEDFTVGMVLREWSGDRSFKLACGLPVNGNSVEFIFDYSGIKDEIRQWWPDSPELYYIDVILHSGNEIVDVKTARFGFKSFEVRGKQFYLNGTPINLRNDSWHYMGFAYQNEEYARLWYKMARDANVNCIRLHAQVYPEFFLDMADEMGMMIVDETSIWASHCEFHYSMEFVENGKKHIKRMIERDRNHPSIIIWSVENECIMAYRVSADDGVKDENELNERLFLLAEYAGSLDPTRPVSGDGSQDMGGRLDVYSLHYPGKKGPENVNKPVTIGEMGSLYYATPDCVCNQYGEKTYLSFDGRLEAIGRELFENLKHERKWAAQVCVFNLVWYGLKPLPFKERIINYPDLSLPGVKPTRTGPYISTLNAAYDDSLPEYIPNTVFEWVRQAYLPERFFFEEGRSRYYNGEAGAKKISVFNDSFEEKEYILEWQMEQKGEILGSGNKSVLVNPAGYEELDIEFDLPAADSIERLSLRILMKFRDNIVFEDVCSIKVYNKNHIFSFMGGFGKVGILGGSRLDANEFFEKSGIETVDGLTQGIDIYLLEECTEEAAAGLTWACCSVLDLLPEKHGFKSWLSHGSAENAFLNVDDRTLMENLEEEDLSNWGNGYLCNNTFQDNLCVSAFNLFCTGKGIPLILDVKNGKARQLVSTIPLLKWAAEEPAALVLLSNLIAYAAQTGKTEAHECVLVSKKDSDMHRSFENMGIDFTLAEVKNRDQIRSLREVKLLVADGSCRLDYLDEIMPYNAEQILLCNFDEATLPDSLKGYIEVVEKPLYQLIKAGKDNALTDGIHAGDLYGLEAGQETVICKRPFLIKDDRKVKGLLKNADLNWRMWNFQGEDRKTVSILRSEQETKTPLYGLAETHINTVKVILGQIDMSYANRKLERLASRFFLQYGTYSKL
Take B1: in the data set “purified protein” (40.0 °C), the Km is reported as 40 ± 1.2 µM, the kcat worked out at 0.0233 s⁻¹ and the kcat/Km came to 586 M⁻¹ s⁻¹.

B2: (Saccharophagus degradans 2-40) (protein)
chain: MVVNTDITQWSLTKTNANGAQTPADIIPLQQWLAVPVPGTVAQAVGDAGPQEDLEQFDWWYTAQFPLPKTGKRTYLQCDGLATLSEVWVNDQQVLYSQSMFENHKLDITDYLQADNTLAIVFKALAPHLAERRARPQWKTNLVDNQNLRWFRTSLLGRMPGWTPPVKAIGPWRDISIVSVAKFDLVECTVFSEVDEALNGKVHINLELDFIDAKLAADPQIQFLLDGKIYPITAKPIKGGGAFIDTEIAIEQPQLWWPHTHGEPYLHAYKITAIIDGEVTTLTEGKLGFKRVTAANQTNQLALEVNNNKIFCRGACWATPNITSLNASKQEYRHLLKLLVDAGANMVRIGGTMVYEHDDFYALCDELGILVWQDFMFANMDYPFADEDFSKLVAKEVRQQITRLKQTASIAVFCGNSEMQQQAAMMGMEQTQWANALFDTFITQKLEEQQLTLPYFTSSPCEGGLPFHTDAGLTHYYGVGAYKLMPDHFTVREVGFTSECLGFSHIPVTASLKQAFESPYPATHTPSWKAGIPRDNSAGWDFEDIRNFYLEKIFGVVADTLRYSDPETYFKLATIATAEMVSSVYSIWRASISNCNGALAWFYQDIVAGAGWGIVDSFARPKAAYYFLKRVWQPQQVLLINNSLNGYTLEVQNETAHTLQAQLNIVLVGLSDNIVAEHTQEITLAANSVGTHKLDTVFGRFMDATHAYKFGRQTIYAVVAELRNESGELISQAVSFPGCRRINTGAGEITGSITSDSDNESVVTLTPSVFVEYACLESKTTQFSDNYTCMLPGKTYSFKACEQIKSVHVSTLNLQKEFRVT
For the molecule B2, in “purified protein” (40.0 °C), the Km was 64 ± 12.6 µM, the kcat was 0.02 s⁻¹ and the kcat/Km is 306 M⁻¹ s⁻¹.

B3: (Zobellia galactanivorans) (protein)
chain: QTEKVDLPGEERMLLSGNWKFHAIYGEGSNYIDISETLEDIVIDNTDKDRVSVKGDWKTRSEGERGSGFLGTDYLQRDFKSGESDQNYVRYRPELPESGFYEAFVRFPFASHLTAEVNVNHAQGITAAYFNQRNRCDQWLSLGVFSFDKTLDSYVEVTAITASTVVADAVMFRPVSKEKMEEADIEKSSVFQVDFDDSNWKDLRVPGHWGMLNAYSNYTGKGWYRKTFELPKNWKSVSNERIRLKFDAVYHIARVFLNGELVGLHQGGFTPFEFDITDKLNYNGQNVLAVEADNNALVGATWNWGGIIREVHLIKNNDVRISYQYIHADPDLKKGSANLKLKVRIKNSSTRQRTVLLAAHIEEASSPVDLTYKVKVPANSTQEIQLATTLPATDVKLWHFDTPNLYHLTTTISENGQVLDTQKDRFGIRKIELTDSQLILNGEPVRLSGFNRVSDHRYWGSSEPQYLIDKDVDLMKNAGANFMRIMHGTQNKKLMDRCDEKGILIFEEVNVRELTNPEFTPPHYPLAKQWLKEMIERDVNHPSIIGWSVGNELKDHFDYAKETIDYVKKELDPYRLVTCVSNSGWRDSATPEKDPNTLVDIIMHNLYPFQGTPDKVFKTLRAKWPDKPIFISEYGIKPMATTSLDGDIPELSEWNDHLRGKNTYVIGASLWTFNDYRSGYAATSPEENRVWGLVNTWRQKRKLYHRIQKENSPLADLKIDGIDLKNGGAKVRITPKPVNGYPVYSLKGYTLEFTMYDKQGEILFSKTHSLPHIVPGGKPTEVAIDWQRYMTGMAQIHAAVISPNGYIRHQTSISLELPEKTSILAIEKGHGTVRVHYRPVFGADTYYVAYADGKGLERKSDTSTTHSIEIKDLDPEEEYAFSVIAQNSKGKSVPSGTRTTKANADVLPPMIWDAFLSDGKLVVGYSGAPDDVEYIVKYGLRDSYFPYKNSTRTKGMTVIDFEGDDPHFVSIKKKTKTGESDWSKPIHVYTIRNKERYRN
Turning to B3, in “purified protein”, the Km was determined as 67 ± 8.3 µM, the kcat is 0.0133 s⁻¹ and the kcat/Km came to 204 M⁻¹ s⁻¹.
